Measured values published in the DeepSol protein solubility set.

Assay: soluble on expression in E. coli; label from the status in PepcDB or PDB records

Row | Sequence | soluble on expression in E. coli
1 | MAEGVNEPCFPGDCGIFVTKVDKGSIADGRLRVNDWLLRINDVDLINKDKKQAIKALLNGEGAINMVVRRRKSLGGKVVTPLHINLSGQKDSGISLENGVYAAAVLPGSPAAKEGSLAVGDRIVAINGIALDNKSLNECESLLRSCQDSLTLSLLKVFPQSSSWSGQNIFENIKDSDKMLSFRAHGPEVQAHNKRNLIQHNNSTQTDIFYTDRLEDRKEPGPPGGSSSFLHKPFPGGPLQVCPQACPSASERSLSSFRSDASGDRGFGLVDVRGRRPLLPFETEVGPCGVGEASLDKADSEGSNSGGTWPKAMLSSTAVPEKLSVYKKPKQRKSIFDPNTFKRPQTPPKIDYLLPGPGPAHSPQPSKRAGPLTPPKPPRRSDSIKFQHRLETSSESEATLVGSSPSTSPPSALPPDVDPGEPMHASPPRKARVRIASSYYPEGDGDSSHLPAKKSCDEDLTSQKVDELGQKRRRPKSAPSFRPKLAPVVIPAQFLEEQKCVPASGELSPELQEWAPYSPGHSSRHSNPPLYPSRPSVGTVPRSLTPSTTVSSILRNPIYTVRSHRVGPCSSPPAARDAGPQGLHPSVQHQGRLSLDLSHRTCSDYSEMRATHGSNSLPSSARLGSSSNLQFKAERIKIPSTPRYPRSVVGSERGSVSHSECSTPPQSPLNIDTLSSCSQSQTSASTLPRIAVNPASLGERRKDRPYVEEPRHVKVQKGSEPLGISIVSGEKGGIYVSKVTVGSIAHQAGLEYGDQLLEFNGINLRSATEQQARLIIGQQCDTITILAQYNPHVHQLSSHSRSSSHLDPAGTHSTLQGSGTTTPEHPSVIDPLMEQDEGPSTPPAKQSSSRIAGDANKKTLEPRVVFIKKSQLELGVHLCGGNLHGVFVAEVEDDSPAKGPDGLVPGDLILEYGSLDVRNKTVEEVYVEMLKPRDGVRLKVQYRPEEFTKAKGLPGDSFYIRALYDRLADVEQELSFKKDDILYVDDTLPQGTFGSWMAWQLDENAQKIQRGQIPSKYVMDQEFSRRLSMSEVKDDNSATKTLSAAARRSFFRRKHKHKRSGSKDGKDLLALDAFSSDSIPLFEDSVSLAYQRVQKVDCTALRPVLILGPLLDVVKEMLVNEAPGKFCRCPLEVMKASQQAIERGVKDCLFVDYKRRSGHFDVTTVASIKEITEKNRHCLLDIAPHAIERLHHMHIYPIVIFIHYKSAKHIKEQRDPIYLRDKVTQRHSKEQFEAAQKLEQEYSRYFTGVIQGGALSSICTQILAMVNQEQNKVLWIPACPL | soluble
2 | MLNPLRALTLGGLLLFSTLGHAAPAAPDALRIGYQKGSVSMVLAKSHQLLEQRYPQTHISWIEFPAGPQMLEALNVGSIDIGSTGDIPPIFAQAAGADLVYIGAEPPKPKAEVILVAQGSPIHNVAELKGKKVAFQKGSSSHNLLLRALQLAGLKFSDIQPVYLAPADARAAFQQGNVDAWAIWDPYYSAALLQGGARVLTDGTDLKQTGSFYLASRPYAERNGAFIEGVLDTFTQADALTHSQRAQSITLLAKTMGLPEAVIASYLDHRPPTAVTPVSAETAARQQQTADLFYENKLVPKKVDIRARIWQPTATQGAKS | not soluble
3 | SLINNLSTHSYWPNRGQLEVQGLTVKYTEAGRAVLNDISFSVDGGQSVGLLGRTGSGKSTLLSALLGLNYTEGEMFIDGVSSSSMPLQAWRKAFGVVPQKVFILTGTFRMNLDPYGRYSDDELWRVAEEVGLKSVIEQFPDKLDFELKDGGSVLSNGHKQLMCLARSILSKARILLLDEPSSYLDPITLQVLRKTLKQSFSGCTVILSEAKVEPLLECDSFLMIEKSSVKSYDSIQKLMNEMSHLKQAISPAD | soluble
4 | MRIVALEGIDGSGVSTHSRLLHARLAGAGVKSCLWKEPTEGPVGRLIRGFLRSTEGVDSDLMALLFAADRLWGLRLGVVERCGGSPEVLVVDRYKYSSLAYQGVGSGLEWVDAVNRKAPEAEILVYIDVPTEVALRRITARERREVFETPEFLERVKSMYEEVLRLARARGVKVIRVEGVRGGVERGIEDVQGEIAERVFEALGLARA | soluble
5 | MGSDKIHHHHHHMLTYDLTKTDGPLYKCLYECIKNDISQGKLSSGEKMPSKRTLAKNLGVSTITVENAYDQLIGEGYMFARPKKGYFIADVSDIRVIKAPVQKELSIKLPPEQDESIFDFSSNRTDSGNFPFSIWAKLMRETISLREQELLSVSPCGGVRELREAIASHLSSFRGMNVDPDQIIVGAGTEYLYGLLVKLLGTDKVYCVEDPGYKKISQIYECNNAKCLPVQMDEQGISVELIKKANAQIAHISPTHHFPTGITMPVNRRYELLAWANESSDRYIIEDDYDSEFRMNGHPIPPILSIDACEKVIYINTFSKSLTSTIRISYMVLPEHLANEFYRRLSFYSCTVSTFEQYTLARFISEGYFEKHINRMRLHYGRKRQSVLSSIKGCFTEKECRVIENDSGLHFIIQFDTNLPDKTVEERLLKKGIKLQAITHFNLIKPKEDRHQFIINYSNIDADRIMDELLIIKDTIL | not soluble
6 | MRVVRPEFRPAPGLDTDAMASRQRDIAAVADFADDHGLTPERIGLDEPPGEQAALGGATTSGEAAPVVVGVDQAFRDDEVSVSAAVAIRDGAVIERAAGNAPLDVPYVPGLLAFREGSAVIDALSSLSVEPDLLVVDGSGRIHYRQAGLATHVGVLFDVPAVGVAKSLLCGTPAAALADPLPAGTRVAIEADDSMDAPDGAVVGYALQSRQYPTPETRHINPLYVSPGHRVSAGTAADLVEATCTQYKLPAPTRLADQYAADLT | not soluble
7 | MTSSIKSDAPQFLLDLDNCSSLPPTPPKTASPGNSKMKGFNISDLCLDLDSSTSSSCSVSPASSFHTRSESVGQQQSGRNSPVSSSTESPTKRPKYSYNALIAMAIQSSPFKSLRVSEIYKYISSNFSYYKNQKPLQWQNSVRHNLSLHKEFRKVRTLDGKGSYWAMTADLGTDVYISNNCGKLRRQKSKVAKFPPMQQHFPIPQLPTQNIHQLCMQNPQILATLLQNMYLQNMQNLQNIPMVPGFPIIPVPINPTSFHFPKSS | not soluble
8 | MGGSHHHHHHGMASGSAGLSRLHGLFAVYKPPGLKWKHLRDTVELQLLKGLNARKPPAPKQRVRFLLGPMEGSEEKELTLTATSVPSFINHPLVCGPAFAHLKVGVGHRLDAQASGVLVLGVGHGCRLLTDMYNAHLTKDYTVRGLLGKATDDFREDGRLVEKTTYDHVTREKLDRILAVIQGSHQKALVMYSNLDLKTQEAYEMAVRGLIRPMNKSPMLITGIRCLYFAPPEFLLEVQCMHETQKELRKLVHEIGLELKTTAVCTQVRRTRDGFFTLDSALLRTQWDLTNIQDAIRAATPQVAAELEKSLSPGLDTKQLPSPGWSWDSQGPSSTLGLERGAGQ | not soluble
9 | MDRRFPPFSPFFNHGRRFFDDVDFDRHMIRPYWADQTMLTGHRVGDAIDVVNNDQEYNVSVDVSQFEPEELKVNIVDNQLIIEGKHNEKTDKYGQVERHFVRKYNLPTGVRPEQIKSELSNNGVLTVKYEKNQEQQPKSIPITIVPKRN | not soluble
10 | YAGTSDAPYTGGFMNTFNYRNWELNLNFSYNLGAHVKTDPTYYIADPDPGRNMNRDILDRWTPENKNGKFPALTSLNTNPADYYLFSTRRDLYKSLDIWVKKLSYIRLQNIRLAYHFPSEWLHKLNIGGATVGLEARNLFVFGSSYKNYMDPESMSNLYSTPVPKSVTFNLSLNF | not soluble
11 | MSLKIGIVKHLNARPLTWGFEKNKKHEIVPENPAILKDYLLNGTIDLGLISSIECIRNDHVLNTYYGTGVCAREKVRSILFFKNKRENFPPKQILTDNGSKTSVALVRVLIYEESGLIPYVEPTDSKLIQEKISNGIGSHMLFGDNALLAKWNPEFYEVKDLAQWWNELTGLGFIFALWASKKSLKLDDLIFIQSLEYGVSHIEEIISHESRLSSTLVREYLTKELHYKITEEDQKGFLLFREKCSQLNLLEGHHHHHH | soluble
12 | MNTVIDFSAGVPPAVEVKAAGHIGVMRYISPPRLSWMTAKPATRPQIDRCRSAGVDVGFVWQYGGADNPDTMRGRTGGHADATSAQAKLIELGCPHHPVFFAVDFDISLDQWNATAVHYFKAACEVLGRDRVGIYGHSRVISWAVEDQVIADLGGGKHLAWQTPAWSMGERATEAVLYQGAANVKGPAGINIDVNEVLHHEWGQHPVGETRLEKSQEMELAMKPNPNHRGDPLFLPDVLKAFGVKVQEWDGWRDRGHGDFTVIQGVFAHHTGTDKDIPGYIADHPELGLCSQIHLNRDGTAVIVGAGIAYHAGRGSYPGWPTDNANQVAIGIEAASSGTSPWPPAQLDAYYRTCAAILWYLGKPATPQTLLGHKEYSGAAQGKWDPGGIDMNDFRRNVQHYIDNPPFLAADAAHITKEEDPMIQSLINPAKKFAQSTLISIVDATCWQILVLAKAIAKKQGLDPDQILADAITADREGK | not soluble
13 | MSLKIFEFVPPTDKEIEEAQLKLGFKFSPEYIEFIKSGYDLGDAPIEALEISNPPSHADIFETLANARKYFQMPSEMCPICEDNSDYYCLNQKGEVVFWSHNGTTSEKWANVTVWRNQMATEVEGHHHHHH | soluble
14 | MSLRVTEPEMDQNLRDAIRMVINELTSSSGEVSQWTLREITARYRNLYRIKDPFVLDYYINRYMSGLRSVYPLYINDAIERIMSNGYDRPVIVQYNGKYYETNITLKREDLDSIAIRVSQMMGKKISSGSPIAYGNLQNFRSIVTFGDDVTPFGSSLYLERRHVVADPEAMSSMKDPMVSAYLIMALENMRSIMIIGPDSPMKIAIIYHLIRMIGSEKKIAYIGENGRFDFPRNIVYMMPRERTVFSSEISRTDLINTALRQRPDFIVVNGLTARELPAAVQAITTGHPTLSSMDIDSIENFSSLFSDPSTGLSKDMISLFDVVIEIADNGEYVKAIYEYDRLEGQEVLYNVPFSADRKRKLVFSGYSGIFRRMSKVIGEDSFRQALENRMKELDGGEGHHHHHH | soluble
15 | MRAAQALPQTAHVSHFGHGPRLVLALHCTIAHSGAWKGLTRILGEEAQFTAPDMLSHGRSPDWDGQGCFQDRILGIARTCLTEAPMDVIGHSFGATVALRLAVEHPERVRSLTLIEPVFFAVARQDAPELIDSHASDAQPYLDALAAGDHALAARLFNRMWSTADSPRWPDLPEATRAAMIRGIHVVPTMDAALFDDTAGLLAPGRLDRAAMPVLLLRGALTHPVMQAISMGLQRRLPDAVEMVIEGAGHMLPITHPDETAAHIRALWSRTG | not soluble
16 | MSKTLDGEPIECEIIDSLKLVNNTMDKIISRGYEKSAIYTPKAYGSVYRLSETNLLSKNEFKDNLLITFMAKKFKKLIRSEKPDLIIGTHPFPMIALSTLKKNFNLHNNESNAYTEHFYKHYTNTINVPPLISVLTDYTTHSTWIQNEIDYYIVGHEYVKELLVFDGVEPSKIRTFGIPLEHHHHHH | not soluble
17 | MGSDKIHHHHHHMTPPPDELLAVRQAVEWAITTRRSVRAFLPKPVTADTVEAILNTARFAATGVNIQPWKVHVLMGAAKDRVCAAIKQIDDDPAVAVMHADEWAYYPKEWTSPYVDRRRAVGWRLYSLLGIEKGDKARMQVQHGRNYQFFGAPVGLFFTVDRLMSEGSLLDYGMFLQNIMVVARTYGLSTCPQAAFMKYHRIIEQELGLGAHEKFVVGMSLGYADEERIENTLASEREPAASFTTFHEK | not soluble
18 | MSSTAEEMAAAFEQTGGPDLTTGSGKRTKSDRVEHKHASQPGGDTRKVVQTASNGEAKRKEK | not soluble
19 | MSQNDLNKEKALVVFSGGQDSTTCLFYAKKHFKEVELVTFNYGQRHDKEIEVAKKIAKEQNLKHHILDMSLLSQLTPNALTQHELSIEDNDDGIPNTFVPARNLLFLSFAGALAYQIHAKHIITGVCETDFSGYPDCRDSFIKSMNVTLSLSMDKDFVIHTPLMWLDKAQTWALSDKLGVLDYIRHNTLTCYNGIIGDGCGECPACHLRARGLKHYLEHKGEE | not soluble
